From article PMC3817407 come the findings set out here.

Several values for one entry are separate records, joined by “and”; a condition that tells them apart may be missing. Equal values may be shown once.

Test [1] deals with T1, ECF11_3726.
T1 chain: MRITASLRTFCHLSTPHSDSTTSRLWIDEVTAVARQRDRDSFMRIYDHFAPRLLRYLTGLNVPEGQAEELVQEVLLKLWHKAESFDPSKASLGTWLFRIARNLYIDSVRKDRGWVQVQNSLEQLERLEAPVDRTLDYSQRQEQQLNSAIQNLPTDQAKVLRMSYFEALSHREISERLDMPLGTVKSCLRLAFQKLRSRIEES

In test [2] the target is T2, ECF17_1458.
T2 chain: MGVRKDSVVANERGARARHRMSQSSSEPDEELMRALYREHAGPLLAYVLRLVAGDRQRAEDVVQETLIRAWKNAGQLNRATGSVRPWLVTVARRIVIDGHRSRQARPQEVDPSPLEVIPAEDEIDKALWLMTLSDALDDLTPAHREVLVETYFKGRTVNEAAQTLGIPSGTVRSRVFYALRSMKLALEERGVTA

Test [3] has as its target T3, ECF20_992.
T3 chain: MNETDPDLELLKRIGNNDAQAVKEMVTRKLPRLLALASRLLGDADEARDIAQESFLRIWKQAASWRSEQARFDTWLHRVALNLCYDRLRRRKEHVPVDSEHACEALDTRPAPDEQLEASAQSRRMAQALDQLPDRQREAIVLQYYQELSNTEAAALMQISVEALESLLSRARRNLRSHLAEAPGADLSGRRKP

The target in test [4] is T4, ECF25_1643.
T4 chain: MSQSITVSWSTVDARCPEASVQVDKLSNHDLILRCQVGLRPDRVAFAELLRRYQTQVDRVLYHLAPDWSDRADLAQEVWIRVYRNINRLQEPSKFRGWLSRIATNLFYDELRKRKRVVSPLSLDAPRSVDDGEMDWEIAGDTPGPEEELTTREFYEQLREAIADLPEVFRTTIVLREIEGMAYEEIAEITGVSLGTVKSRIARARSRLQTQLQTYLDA

The target in test [5] is ECF27_1331.
In test [6] the target is T5, ECF31_34.
T5 chain: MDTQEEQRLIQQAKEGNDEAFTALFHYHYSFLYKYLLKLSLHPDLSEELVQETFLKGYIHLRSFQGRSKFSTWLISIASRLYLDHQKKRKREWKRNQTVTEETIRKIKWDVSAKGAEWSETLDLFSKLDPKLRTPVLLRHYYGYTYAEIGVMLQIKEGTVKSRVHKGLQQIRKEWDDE

In test [7] the target is T6, ECF35_3582.
T6 chain: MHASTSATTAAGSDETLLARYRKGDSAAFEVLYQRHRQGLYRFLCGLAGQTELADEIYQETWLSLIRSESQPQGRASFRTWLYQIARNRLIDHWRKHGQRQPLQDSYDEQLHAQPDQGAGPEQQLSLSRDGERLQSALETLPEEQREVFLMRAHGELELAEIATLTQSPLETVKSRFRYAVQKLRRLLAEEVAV

B1: AS14_1324 (protein)
chain: MSGSRPEPEGHLAEQHLGDRLSALVDGELGHDARERVLAHVATCPKCKAEVDAQRRLKNVFAEAAPPAPSESFLARLQGLPGGGDSDGGGSPFSGLPGGFGASAASGVFGPRRDERFEFDYVPAGSHTPVLPSATSGRGFRIHEVGRHESDRSASRGLRFAFAAAGAVSLAAIALGGVTLGTPDTTTEARGSGSGSNVTPLRTPGSAAATGSESQRRRTAGPLLGQGQRALGDLPVASTTASAPLLPGMPAPAGGDARQQAVRALTTPVTAGAAAMSPLIRPLEAVPPLSLSSWSAAPEVRPPGLLAAPDPAPSPYPAASPAASSSPLR
As to B1, the fold repression was 11 in test [1]; 7.16 in test [2]; 6.81 in test [3]; 3.84 and 3.33 in test [4]; 8.27 in test [5]; 5.28 in test [6]. Further, in test [7], the fold repression turned out to be 4.28.

B2: AS16_3622 (protein)
chain: MMKTDELISLLATAEGPVDRHALARRLGLALLAGLLGALLLTVALYGVRSDLAEVARTPLFWAKVALPTSLALLGLWLTQRLARPGVRGGALWGLLGVPLLLVWLGAAISLFGAPPEARADLIFGRTWRTCALNITLLSTPVFIAVFWALRGLAPTRLRQAGAAGGLLAGSTATLVYCLHCPEMGVPFWGLWYLLGMLVPTLLGAVLGPRLLRW
Take B2: the fold repression in test [1] was 6.84; in test [2], 4.75; in test [3], 2.48; in test [4], 1.55 and 1.67; in test [5], 3.55; in test [6] it was 2.85. Besides, in test [7], the fold repression came out at 1.67.

B3: AS02_915 (protein)
chain: MEKTGQEWVSASVDGETDRQTLAELAADTDSHAKWQRYHLMGDAMRDELPQAMPLDLSARIAAALEDEPTILAPKVEREATQAPSRAVVVPFMRQLGQYGIAAAVALMAVVGVQNYQSTQDDAPLPVLNTRPLVGTATPVSLQTGPVANQNQGNANDQLLEQRRRINAYLQDHMLQQRLNTGAVVDDNSEVTPIPVNR
Consider B3, for which the fold repression in test [1] was 7.44; in test [2], 2.74; in test [3], 4.44; in test [4], 3.46 and 2.7; in test [5], 4.27; in test [6], 3.89. Also, the fold repression in test [7] was 2.65.

B4: AS11_987 (protein)
chain: MNKHPDNNLLEAYASGSIDAVSGLVVATHLETCSKCRAYVNQVEASQANTVSESPSEYSPEFDDMLNDIINAEPVNDNVVIQDTAFVNVAGKSFELPKTLVRFSDLVGSWRSYGGKVFSAQIDLGEDARVSLMYIGENVQIPQHTHRGLESTLVLHGGFSDEDGQYEEGDLMVRDASVKHSPFTQEGEDCLCLTVLTEPMIFTQGVARIFNLFGKGLYP
Consider B4, for which the fold repression was 6.99 in test [1]; 2.13 in test [2]; 3.26 in test [3]; 2.1 and 1.71 in test [4]; 3.06 in test [5]; 2.53 in test [6]. Besides, the fold repression in test [7] is 1.71.

B5: AS16_973 (protein)
chain: MKTDDLIALLAAGEGPVPRHAVGRRMAVAALGGLTAALLLTITLYGVRSDITEVAQTPLFWGKVAFPTSLALIGLWLTSRLARPGGKGAAGWKMLGLPLLLVWCGAAVSIAGAPVDARADLLFGRTWRTCALNIALLSVPAFVTVFWALKGLAPTRLRLAGAAGGLLAGSSATVAYCLHCPEMGVPFWGVWYVLGMLVPTVLGAWWGPRMLRW
For the molecule B5, the fold repression in test [1] is 1.29; in test [2] it was 1.11; in test [3], 0.636; in test [4] it was 0.594 and 0.667; in test [5], 0.929; in test [6], 0.696. Further, in test [7], the fold repression amounted to 0.722.

B6: AS15_436 (protein)
chain: MAQSTEPKASPQEATAKGGDNTKGKSRKELQQQIDENLRRVYEEALVQEVPDRFAMLLDQLRQKGTGK
As to B6, the fold repression in test [1] was 7.87; in test [2], 5.96; in test [3], 1.95; in test [4] it was 1.19 and 1.27; in test [5], 4.82; in test [6], 3.29. For the same molecule, the fold repression in test [7] was found to be 1.1.

B7: AS20_992 (protein)
chain: MTPERFVHLADAYGADLQRWPSAERAAAQALLDCGDAQAVAALRQAHWLDSQLDRYQVPAPSPALAQRIIAAAQQPGAPFWSRYAGWLASLGWVGVGLTGVAAGMLAVALSLPLSTSAEALPSVFDQSDAEFVLSINAEEAEQ
As for B7, the fold repression in test [1] is 1.91; in test [2], 1.5; in test [3], 169; in test [4], 1.63 and 1.33; in test [5], 2.11; in test [6], 1.96. For the same molecule, the fold repression in test [7] amounted to 1.6.

B8: AS03_1244 (protein)
chain: MKQFDPDVNIRPKEDSIRHYSVPDDYFASFTDKLMAQIPAVKEENTVVVPSVALWPKLRPLLYLAASFLLMIGMFKAFSLFGVGSDTGRTTSTSAGLVALDHGDTRWSEDTDYRDFLHDNCAETVSDEWVLTDFSE
As for B8, the fold repression was 3.57 in test [1]; 1.62 in test [2]; 1.93 in test [3]; 1.23 and 1.24 in test [4]; 2.14 in test [5]; 1.92 in test [6]. Also, in test [7], the fold repression is 1.37.

B9: AS15_524 (protein)
chain: MNFGVEDMIEHVPMEDKRKGAAALDEARLRQQAIGVKLRQMFDEVVNEPVPDEFLAILRKAERPAGGE
Consider B9, for which the fold repression in test [1] was 8.06; in test [2] it was 9.33; in test [3], 5.56; in test [4], 2.89 and 3.07; in test [5], 11.5; in test [6] it was 6.57. For the same molecule, the fold repression in test [7] came out at 2.42.

B10: AS01_3473 (protein)
chain: MSNYDNAELLALWLEGKLTPKQRDEFEQRCIQDSQFAEQVDAAAMVKIGADDYSSSEVPQWNKAATFEPQQANNSGSWLSGVSLVTSALAIVLVLTGTQVTTSEGELRIRFGSGQSEQALVKLVDSKLDAFKQNQQDAFTLYAQTLQQQQSESASQLTNYLLSSSRKERREDFAELIKFVNQQRSDDQLFYARQLNQLQQDVYHDATGVALESIQQ
Take B10: the fold repression is 5.65 in test [1]; 1.83 in test [2]; 2.52 in test [3]; 1.37 and 1.13 in test [4]; 3.09 in test [5]; 1.97 in test [6]. The fold repression in test [7] turned out to be 1.49.

B11: AS04_1609 (protein)
chain: MNRTTEQRNAEVMKTIGLLDQMPRVEVDHLFRVRLMQRIEAMEVKKTSWSALPGGAFNPRLAFMALLLMLNIASALMLFMHGTPQATGSSGAIAESLTEDYGGPALSYYDDQTTIDR
As to B11, the fold repression was 13.9 in test [1]; 3.13 in test [2]; 7.41 in test [3]; 1.05 and 1.18 in test [4]; 2.31 in test [5]; 3.92 in test [6]. In test [7], the fold repression was 3.24.

B12: AS03_1198 (protein)
chain: MDKDFDFDNIGKRTPYRTPDNFFEETQRKILERTVDEQRKKRRLKRIIPTVIAVAAVLAGILFTPSLRYMNTDTPSASNILAVDKNNVTTDPVDKWIKELSDEELEELVSFSENDIFLN
As to B12, the fold repression in test [1] was 1.38; in test [2], 0.894; in test [3] it was 0.888; in test [4] it was 0.95 and 0.944; in test [5] it was 1.42; in test [6], 1.12. Moreover, the fold repression in test [7] amounted to 1.05.
